Measurements taken from patent US20250262210A1 (TRUSTEES OF COLUMBIA UNIVERSITY IN THE CITY OF NEW YORK, published 2025).
Numbering of substitutions follows the chain as printed.

T1: LZTR1 R810W-FLAG (human, UniProt Q8N653 1-840)
T1 construct: Stably expressed in U87 cells by lentivirus; also called LZTR1-FLAG-R810W; LZTR1 RW; not shown: FLAG tag
T1 sequence (looked up): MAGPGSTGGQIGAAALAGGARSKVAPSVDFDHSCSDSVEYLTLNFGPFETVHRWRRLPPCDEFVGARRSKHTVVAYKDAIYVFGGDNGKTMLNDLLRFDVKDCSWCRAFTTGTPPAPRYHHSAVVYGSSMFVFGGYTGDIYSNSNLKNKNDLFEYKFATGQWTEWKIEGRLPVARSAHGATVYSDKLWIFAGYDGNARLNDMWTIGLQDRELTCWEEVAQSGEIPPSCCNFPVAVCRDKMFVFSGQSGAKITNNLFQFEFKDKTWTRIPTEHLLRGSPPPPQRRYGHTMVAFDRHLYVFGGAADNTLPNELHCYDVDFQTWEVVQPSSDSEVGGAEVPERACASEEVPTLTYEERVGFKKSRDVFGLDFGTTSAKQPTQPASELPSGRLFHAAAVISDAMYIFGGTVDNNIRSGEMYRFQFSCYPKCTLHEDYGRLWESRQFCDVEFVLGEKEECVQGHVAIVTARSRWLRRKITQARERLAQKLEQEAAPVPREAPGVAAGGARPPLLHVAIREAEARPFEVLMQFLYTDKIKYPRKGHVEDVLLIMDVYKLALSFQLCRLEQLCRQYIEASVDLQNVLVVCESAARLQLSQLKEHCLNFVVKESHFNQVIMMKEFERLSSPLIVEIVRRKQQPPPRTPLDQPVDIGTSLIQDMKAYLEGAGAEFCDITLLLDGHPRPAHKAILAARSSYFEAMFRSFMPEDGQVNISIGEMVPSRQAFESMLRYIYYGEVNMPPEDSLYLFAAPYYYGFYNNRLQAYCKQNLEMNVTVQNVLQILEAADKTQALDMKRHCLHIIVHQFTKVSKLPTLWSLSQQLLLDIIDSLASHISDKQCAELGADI

T2: LZTR1-FLAG (human, UniProt Q8N653 1-840)
T2 construct: Expressed in HEK 293T, HeLa or U87 cells; used as cell lysate; also called LZTR1 wild type-FLAG; LZTR1 WT; not shown: FLAG tag at the C-terminus
T2 sequence (looked up): T1 sequence (looked up) with W810R

B1: RABGEF1 (other, human, UniProt Q9UJ41 1-491, looked up)
chain: MSLKSERRGIHVDQSDLLCKKGCGYYGNPAWQGFCSKCWREEYHKARQKQIQEDWELAERLQREEEEAFASSQSSQGAQSLTFSKFEEKKTNEKTRKVTTVKKFFSASSRVGSKKEIQEAKAPSPSINRQTSIETDRVSKEFIEFLKTFHKTGQEIYKQTKLFLEGMHYKRDLSIEEQSECAQDFYHNVAERMQTRGKVPPERVEKIMDQIEKYIMTRLYKYVFCPETTDDEKKDLAIQKRIRALRWVTPQMLCVPVNEDIPEVSDMVVKAITDIIEMDSKRVPRDKLACITKCSKHIFNAIKITKNEPASADDFLPTLIYIVLKGNPPRLQSNIQYITRFCNPSRLMTGEDGYYFTNLCCAVAFIEKLDAQSLNLSQEDFDRYMSGQTSPRKQEAESWSPDACLGVKQMYKNLDLLSQLNERQERIMNEAKKLEKDLIDWTDGIAREVQDIVEKYPLEIKPPNQPLAAIDSENVENDKLPPPLQPQVYAG
B2: RANBP9 (other, human, UniProt Q96S59 1-729, looked up)
chain: MSGQPPPPPPQQQQQQQQLSPPPPAALAPVSGVVLPAPPAVSAGSSPAGSPGGGAGGEGLGAAAAALLLHPPPPPPPATAAPPPPPPPPPPPASAAAPASGPPAPPGLAAGPGPAGGAPTPALVAGSSAAAPFPHGDSALNEQEKELQRRLKRLYPAVDEQETPLPRSWSPKDKFSYIGLSQNNLRVHYKGHGKTPKDAASVRATHPIPAACGIYYFEVKIVSKGRDGYMGIGLSAQGVNMNRLPGWDKHSYGYHGDDGHSFCSSGTGQPYGPTFTTGDVIGCCVNLINNTCFYTKNGHSLGIAFTDLPPNLYPTVGLQTPGEVVDANFGQHPFVFDIEDYMREWRTKIQAQIDRFPIGDREGEWQTMIQKMVSSYLVHHGYCATAEAFARSTDQTVLEELASIKNRQRIQKLVLAGRMGEAIETTQQLYPSLLERNPNLLFTLKVRQFIEMVNGTDSEVRCLGGRSPKSQDSYPVSPRPFSSPSMSPSHGMNIHNLASGKGSTAHFSGFESCSNGVISNKAHQSYCHSNKHQSSNLNVPELNSINMSRSQQVNNFTSNDVDMETDHYSNGVGETSSNGFLNGSSKHDHEMEDCDTEMEVDSSQLRRQLCGGSQAAIERMIHFGRELQAMSEQLRRDCGKNTANKKMLKDAFSLLAYSDPWNSPVGNQLDPIQREPVCSALNSAILETHNLPKQPPLALAMGQATQCLGLMARSGIGSCAFATVEDYLH
B3: RAP1GDS1 (other, human, UniProt P52306 1-607, looked up)
chain: MDNLSDTLKKLKITAVDKTEDSLEGCLDCLLQALAQNNTETSEKIQASGILQLFASLLTPQSSCKAKVANIIAEVAKNEFMRIPCVDAGLISPLVQLLNSKDQEVLLQTGRALGNICYDSHEGRSAVDQAGGAQIVIDHLRSLCSITDPANEKLLTVFCGMLMNYSNENDSLQAQLINMGVIPTLVKLLGIHCQNAALTEMCLVAFGNLAELESSKEQFASTNIAEELVKLFKKQIEHDKREMIFEVLAPLAENDAIKLQLVEAGLVECLLEIVQQKVDSDKEDDITELKTGSDLMVLLLLGDESMQKLFEGGKGSVFQRVLSWIPSNNHQLQLAGALAIANFARNDANCIHMVDNGIVEKLMDLLDRHVEDGNVTVQHAALSALRNLAIPVINKAKMLSAGVTEAVLKFLKSEMPPVQFKLLGTLRMLIDAQAEAAEQLGKNVKLVERLVEWCEAKDHAGVMGESNRLLSALIRHSKSKDVIKTIVQSGGIKHLVTMATSEHVIMQNEALVALALIAALELGTAEKDLESAKLVQILHRLLADERSAPEIKYNSMVLICALMGSECLHKEVQDLAFLDVVSKLRSHENKSVAQQASLTEQRLTVES
B4: RASA3 (other, human, UniProt Q14644 2-834, looked up)
chain: AVEDEGLRVFQSVKIKIGEAKNLPSYPGPSKMRDCYCTVNLDQEEVFRTKIVEKSLCPFYGEDFYCEIPRSFRHLSFYIFDRDVFRRDSIIGKVAIQKEDLQKYHNRDTWFQLQHVDADSEVQGKVHLELRLSEVITDTGVVCHKLATRIVECQGLPIVNGQCDPYATVTLAGPFRSEAKKTKVKRKTNNPQFDEVFYFEVTRPCSYSKKSHFDFEEEDVDKLEIRVDLWNASNLKFGDEFLGELRIPLKVLRQSSSYEAWYFLQPRDNGSKSLKPDDLGSLRLNVVYTEDHVFSSDYYSPLRDLLLKSADVEPVSASAAHILGEVCREKQEAAVPLVRLFLHYGRVVPFISAIASAEVKRTQDPNTIFRGNSLASKCIDETMKLAGMHYLHVTLKPAIEEICQSHKPCEIDPVKLKDGENLENNMENLRQYVDRVFHAITESGVSCPTVMCDIFFSLREAAAKRFQDDPDVRYTAVSSFIFLRFFAPAILSPNLFQLTPHHTDPQTSRTLTLISKTVQTLGSLSKSKSASFKESYMATFYEFFNEQKYADAVKNFLDLISSSGRRDPKSVEQPIVLKEGFMIKRAQGRKRFGMKNFKKRWFRLTNHEFTYHKSKGDQPLYSIPIENILAVEKLEEESFKMKNMFQVIQPERALYIQANNCVEAKDWIDILTKVSQCNQKRLTVYHPSAYLSGHWLCCRAPSDSAPGCSPCTGGLPANIQLDIDGDRETERIYSLFNLYMSKLEKMQEACGSKSVYDGPEQEEYSTFVIDDPQETYKTLKQVIAGVGALEQEHAQYKRDKFKKTKYGSQEHPIGDKSFQNYIRQQSETSTHSI
B5: RETSAT (other, human, UniProt Q6NUM9 19-610, looked up)
chain: KVYLGLFSGSSPNPFSEDVKRPPAPLVTDKEARKKVLKQAFSANQVPEKLDVVVIGSGFGGLAAAAILAKAGKRVLVLEQHTKAGGCCHTFGKNGLEFDTGIHYIGRMEEGSIGRFILDQITEGQLDWAPLSSPFDIMVLEGPNGRKEYPMYSGEKAYIQGLKEKFPQEEAIIDKYIKLVKVVSSGAPHAILLKFLPLPVVQLLDRCGLLTRFSPFLQASTQSLAEVLQQLGASSELQAVLSYIFPTYGVTPNHSAFSMHALLVNHYMKGGFYPRGGSSEIAFHTIPVIQRAGGAVLTKATVQSVLLDSAGKACGVSVKKGHELVNIYCPIVVSNAGLFNTYEHLLPGNARCLPGVKQQLGTVRPGLGMTSVFICLRGTKEDLHLPSTNYYVYYDTDMDQAMERYVSMPREEAAEHIPLLFFAFPSAKDPTWEDRFPGRSTMIMLIPTAYEWFEEWQAELKGKRGSDYETFKNSFVEASMSVVLKLFPQLEGKVESVTAGSPLTNQFYLAAPRGACYGADHDLGRLHPCVMASLRAQSPIPNLYLTGQDIFTCGLVGALQGALLCSSAILKRNLYSDLKNLDSRIRAQKKKN
B6: SCYL1 (other, human, UniProt Q96KG9 1-808, looked up)
chain: MWFFARDPVRDFPFELIPEPPEGGLPGPWALHRGRKKATGSPVSIFVYDVKPGAEEQTQVAKAAFKRFKTLRHPNILAYIDGLETEKCLHVVTEAVTPLGIYLKARVEAGGLKELEISWGLHQIVKALSFLVNDCSLIHNNVCMAAVFVDRAGEWKLGGLDYMYSAQGNGGGPPRKGIPELEQYDPPELADSSGRVVREKWSADMWRLGCLIWEVFNGPLPRAAALRNPGKIPKTLVPHYCELVGANPKVRPNPARFLQNCRAPGGFMSNRFVETNLFLEEIQIKEPAEKQKFFQELSKSLDAFPEDFCRHKVLPQLLTAFEFGNAGAVVLTPLFKVGKFLSAEEYQQKIIPVVVKMFSSTDRAMRIRLLQQMEQFIQYLDEPTVNTQIFPHVVHGFLDTNPAIREQTVKSMLLLAPKLNEANLNVELMKHFARLQAKDEQGPIRCNTTVCLGKIGSYLSASTRHRVLTSAFSRATRDPFAPSRVAGVLGFAATHNLYSMNDCAQKILPVLCGLTVDPEKSVRDQAFKAIRSFLSKLESVSEDPTQLEEVEKDVHAASSPGMGGAAASWAGWAVTGVSSLTSKLIRSHPTTAPTETNIPQRPTPEGVPAPAPTPVPATPTTSGHWETQEEDKDTAEDSSTADRWDDEDWGSLEQEAESVLAQQDDWSTGGQVSRASQVSNSDHKSSKSPESDWSSWEAEGSWEQGWQEPSSQEPPPDGTRLASEYNWGGPESSDKGDPFATLSARPSTQPRPDSWGEDNWEGLETDSRQVKAELARKKREERRREMEAKRAERKVAKGPMKLGARKLD

These binders were tested against T1, LZTR1 R810W-FLAG (assay: IP/MS, LZTR1 R810W-FLAG, U87).
Method in brief: (§1)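 Extracted peptides in 3% acetonitrile/0.1% formic acid ran on a 50 cm C18 column into an Orbitrap Fusion, with MaxQuant identification and spectral counting.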

Binding result, binds:
B1
B2
B3
B4
B5
B6

The binders below were run against T2, LZTR1-FLAG (assay: IP/MS, LZTR1 wild type-FLAG, U87).
Method in brief: as §1

Binding result, binds:
B1
B2
B3
B4
B5
B6
